Data published in the supplement of paper PMC12042874.
± gives the uncertainty stated by the source.

Assay: amyloid nucleation score (Sup35N fusion, yeast selection) (log enrichment); library NNK3; higher = more nucleation; inactive = no reads after selection
Procedure, shortened: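 Random libraries were run with three technical output replicates. In each, psi-negative yeast expressing Sup35N fused to peptides of 20 random codons were induced 24 hours with 100 μM copper sulfate and grown 7 days at 30°C on medium lacking adenine and uracil, and input and output plasmid inserts were Illumina-sequenced. The nucleation score is the DiMSum log enrichment of output over input reads, centred on the mode score of non-aggregating sequences, and sequences under 100 input reads were excluded.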
MGSSFGGVLVSISVSWGCGF gave an amyloid nucleation score of -0.012 ± 0.51.
Substance MHFRTSDIPTTLELGLLGWP has an amyloid nucleation score of 0.096 ± 0.47.
For MHFVELLRLALVL, the amyloid nucleation score was “inactive”.
For MHGTI, the amyloid nucleation score was “inactive”.
In the case of MHLDYGC, the amyloid nucleation score is reported as “inactive”.
With MHNRLVNDPACPVSTSSL the amyloid nucleation score was “inactive”.
For MHYICAGSGSWAI, the amyloid nucleation score was “inactive”.
With MIFKKDSLGMILHFHHYFYN the amyloid nucleation score was “inactive”.
With MIGLDDWVLALRVRRCSLLV the amyloid nucleation score was “inactive”.
With MILLGKNSLDPEGKGVCHVW the amyloid nucleation score was “inactive”.
Work on MINVPSVSYTMSSVIYTSFK yielded an amyloid nucleation score of 2.39 ± 0.055.
In the case of MIQGSVYPFHLCHLYDISHE, the amyloid nucleation score is reported as “inactive”.
With MIRMIMLSRSDRPGVSRKLD the amyloid nucleation score was “inactive”.
In the case of MISNHCYSLTMIAE, the amyloid nucleation score is reported as -0.432 ± 1.
With MISRSSNKGV the amyloid nucleation score was “inactive”.
For MIVWTHNYLEGELFVSLPLV, the amyloid nucleation score was “inactive”.
With MIYGNWHIWFDVTAVKYEVG the amyloid nucleation score was “inactive”.
With MIYLYNKKYMSCRFDTCIIP the amyloid nucleation score was “inactive”.
In the case of MKKWDNNSLVLPLKGSGKED, the amyloid nucleation score is reported as “inactive”.
With MLAGWSQFYGISRYLPENPV the amyloid nucleation score was “inactive”.
With MLCAL the amyloid nucleation score was “inactive”.
MLCHLVMTSSLSRFLDRGFR showed an amyloid nucleation score of 1.26 ± 0.1.
In the case of MLDCF, the amyloid nucleation score is reported as “inactive”.
With MLDFICAVFSVKNWVGICFV the amyloid nucleation score was “inactive”.
For MLFPPLLGNWLDSGTTQVRR, the amyloid nucleation score was “inactive”.
With MLFYCFYINGRAARTYKRYS the amyloid nucleation score was “inactive”.
With MLGDLAYCGYMSSAGVGSLI the amyloid nucleation score was “inactive”.
For MLGVSYCRQVVYKENSYDFR, the amyloid nucleation score was “inactive”.
With MLGWCYLMTTCE the amyloid nucleation score was “inactive”.
For MLHLGTCEIILAYHHDMKML, the amyloid nucleation score was “inactive”.
With MLIGWC the amyloid nucleation score was “inactive”.
MLKPIMLILKSLEFVLEESS gave an amyloid nucleation score of 0.985 ± 0.11.
With MLNGVLNSKVPMNRRTSGNL the amyloid nucleation score was 0.537 ± 0.13.
MLNVINVYHVSSCGLRGNFE gave an amyloid nucleation score of 2.63 ± 0.077.
With MLREMY the amyloid nucleation score was “inactive”.
For MLYVLSYWLLKMPQMLNVNP, the amyloid nucleation score was “inactive”.
In the case of MMGKRDALVFN, the amyloid nucleation score is reported as “inactive”.
For MMIIL, the amyloid nucleation score was “inactive”.
With MMNGVGAWASFGLLNNYGGN the amyloid nucleation score was 0.291 ± 0.29.
Work on MMSDLILV yielded an amyloid nucleation score of -0.43 ± 1.
With MMSDNDISLRRYFVQCLKSS the amyloid nucleation score was “inactive”.
For MMSFNVPLNAWVLSEFDTTY, the amyloid nucleation score was “inactive”.
In the case of MMSTTKSRDNSIKDQLSGSS, the amyloid nucleation score is reported as “inactive”.
For MNFMLTLFLWGM, the amyloid nucleation score was “inactive”.
In the case of MNGIGNYLDTYMGSCHVEDM, the amyloid nucleation score is reported as “inactive”.
Work on MNRTFVIIVKNVASMIKDNR yielded an amyloid nucleation score of 2.1 ± 0.1.
In the case of MNVGAIGKSSFMY, the amyloid nucleation score is reported as “inactive”.
With MNWGYILLYVWDVSKNRYGF the amyloid nucleation score was “inactive”.
With MNWLSTTGECSILDISQ the amyloid nucleation score was “inactive”.
In the case of MPILLCLVHPPLYSSDPFQK, the amyloid nucleation score is reported as “inactive”.
In the case of MPMCT, the amyloid nucleation score is reported as “inactive”.
In the case of MPSEILVSGIAGYAWAVSR, the amyloid nucleation score is reported as -0.504 ± 1.9.
For MQFLRYSLPSDNRLPGCFL, the amyloid nucleation score was “inactive”.
With MQMMGNEILRFFFVSVLNIN the amyloid nucleation score was “inactive”.
For MRARLFNRITYIGNECNVLS, the amyloid nucleation score was “inactive”.
For MRCGKSL, the amyloid nucleation score was “inactive”.
In the case of MRDMIINMVSGETNGLCVKP, the amyloid nucleation score is reported as “inactive”.
MRICFFDSIQHYQKNQD showed an amyloid nucleation score of 2.1 ± 0.071.
In the case of MRLCAGSCAVFMWNVLVMLG, the amyloid nucleation score is reported as “inactive”.
With MRLDRS the amyloid nucleation score was “inactive”.
With MRMVTPLSGRPRWYLHF the amyloid nucleation score was “inactive”.
For MRNCEIISWKKAQVLSYNSS, the amyloid nucleation score was “inactive”.
Work on MRNGCCNACKILLDIRLFL yielded an amyloid nucleation score of 1.96 ± 0.059.
MRPITGVMVLNVSNRQITLF showed an amyloid nucleation score of 1.72 ± 0.088.
For MRSNSTVYGTFTRSNVLHIP, the amyloid nucleation score was “inactive”.
In the case of MRSTNLACAGMHIN, the amyloid nucleation score is reported as “inactive”.
With MSCSASSSGKAWFGGSPTWW the amyloid nucleation score was 0.674 ± 0.3.
For MSENLDKLKTFPPALE, the amyloid nucleation score was “inactive”.
In the case of MSESTITLPWIAGIAWDEKL, the amyloid nucleation score is reported as “inactive”.
With MSFVSSRGVNKWQVETGLLE the amyloid nucleation score was “inactive”.
For MSGALFMGLGTGRSRVTRNL, the amyloid nucleation score was “inactive”.
For MSKHF, the amyloid nucleation score was “inactive”.
For MSKWYYRWASYNCWFFDRPV, the amyloid nucleation score was “inactive”.
MSMVFIVSCNDDIYTRAR showed an amyloid nucleation score of 0.119 ± 0.24.
For MSSFLTPAGRFSRYFTFVCF, the amyloid nucleation score was “inactive”.
Work on MSSSIILWNFCNMDRCSLVG yielded an amyloid nucleation score of 2.23 ± 0.087.
For MSVQGDHYFPT, the amyloid nucleation score was “inactive”.
In the case of MSWGGCNAVRKFFECRRRVQ, the amyloid nucleation score is reported as 0.222 ± 0.5.
In the case of MTCTTCACDDICSNKLVLFH, the amyloid nucleation score is reported as “inactive”.
In the case of MTFRFNVMLVCLWRATNCFL, the amyloid nucleation score is reported as “inactive”.
In the case of MVLCSKGIVNSARLAFKKSR, the amyloid nucleation score is reported as “inactive”.
With MVNAWLNRYKMWNVFIALNR the amyloid nucleation score was “inactive”.
With MVNMTI the amyloid nucleation score was “inactive”.
For MVQNLQNRYGSWSCKFGFQR, the amyloid nucleation score was “inactive”.
For MVSLHYVI, the amyloid nucleation score was “inactive”.
Substance MVTLKQYLYSG has an amyloid nucleation score of 1.05 ± 0.2.
In the case of MVVLRAVEQLGVRNNDYHS, the amyloid nucleation score is reported as “inactive”.
With MVVRDDKIWIAFRCLYDCCV the amyloid nucleation score was “inactive”.
In the case of MVVTKLRRDVISQSRISMGW, the amyloid nucleation score is reported as 1.07 ± 0.1.
In the case of MWLRFKDFVVRWN, the amyloid nucleation score is reported as “inactive”.
Work on MWSHLVCCNRQPENLYG yielded an amyloid nucleation score of 1.32 ± 0.16.
For MWVGKHDVYTRDFM, the amyloid nucleation score was “inactive”.
With MWVMGNDS the amyloid nucleation score was “inactive”.
In the case of MWVNATSSV, the amyloid nucleation score is reported as “inactive”.
In the case of MWVSAYWYNTCRYRFLSV, the amyloid nucleation score is reported as “inactive”.
For MWWAINCWSSKFHIYSIDTY, the amyloid nucleation score was “inactive”.
With MYFEECGRCFNRSFNYGVNQ the amyloid nucleation score was “inactive”.
For MYLGGKALIRPFPVYATAAW, the amyloid nucleation score was “inactive”.
With MYLVG the amyloid nucleation score was “inactive”.
Work on MYSNVDQFNI yielded an amyloid nucleation score of -0.257 ± 0.47.
For MYVLLHTSQVL, the amyloid nucleation score was “inactive”.
For MYVPIPVYFQF, the amyloid nucleation score was “inactive”.
In the case of MYVSV, the amyloid nucleation score is reported as “inactive”.
For MYVWLRCKLIGNSFLRVKCS, the amyloid nucleation score was “inactive”.
With MYYRTRQELTSCPRNQNIL the amyloid nucleation score was -0.069 ± 0.85.
With NAALIVCLITFYVLGIFLAG the amyloid nucleation score was “inactive”.
In the case of NAHSHGYGSVPGR, the amyloid nucleation score is reported as “inactive”.
With NAQGVSKWEDTRSNLNRLVV the amyloid nucleation score was “inactive”.
For NCFMSLASSNTR, the amyloid nucleation score was “inactive”.
With NCKLFFSFGM the amyloid nucleation score was 1.49 ± 0.094.
For NCLRLYQGSGKMFIIV, the amyloid nucleation score was “inactive”.
In the case of NCLSPTCRSVL, the amyloid nucleation score is reported as 2.07 ± 0.097.
For NCMFPGYLYNVDITLMDV, the amyloid nucleation score was “inactive”.
For NCNVPRSHGGGFLTYTLMRE, the amyloid nucleation score was “inactive”.
NCRSFCC showed an amyloid nucleation score of 0.905 ± 0.094.
In the case of NCVRFFYASDLSNYTRA, the amyloid nucleation score is reported as “inactive”.
With NCYDSW the amyloid nucleation score was “inactive”.
With NDARAVGCTLRYKGLAIYSY the amyloid nucleation score was “inactive”.
With NDEMVY the amyloid nucleation score was “inactive”.
With NDGFMDVVNTSGSNLCMARN the amyloid nucleation score was “inactive”.
With NDHVRAFTDIFMCTMAIMND the amyloid nucleation score was “inactive”.
For NDKLWQWMGNISVRCFFINV, the amyloid nucleation score was “inactive”.
NECYYLGRNWPYYGKSDMLL gave an amyloid nucleation score of 0.379 ± 0.27.
For NELVLKYRSTVVLVKLW, the amyloid nucleation score was “inactive”.
In the case of NETPVSDAESGVLDFTSHEL, the amyloid nucleation score is reported as “inactive”.
For NEVDDWFSD, the amyloid nucleation score was “inactive”.
In the case of NFAGMFVGLMPWHVCDTTCR, the amyloid nucleation score is reported as “inactive”.
With NFCLMLDVWINTFRDIIYWG the amyloid nucleation score was “inactive”.
NFLFMCSPYYLWIFDPGCYL gave an amyloid nucleation score of 2.8 ± 0.074.
In the case of NFLGAFRIPRLLRSLVALYL, the amyloid nucleation score is reported as “inactive”.
In the case of NFLVRTPGRNERG, the amyloid nucleation score is reported as “inactive”.
NFMCFLVFHDLYEGQGYELR gave an amyloid nucleation score of 2.3 ± 0.089.
Substance NFNYNQQLSVLLLVFGWTWR has an amyloid nucleation score of 1.83 ± 0.075.
In the case of NFSCCLSCRQHMLAIFM, the amyloid nucleation score is reported as 0.988 ± 0.13.
With NFWVIPQ the amyloid nucleation score was “inactive”.
NFYYSSAFLSVLFPFSACFP showed an amyloid nucleation score of 2.22 ± 0.084.
For NGGIERLSWVRVWFRHTFQS, the amyloid nucleation score was “inactive”.
In the case of NGKWKGWSS, the amyloid nucleation score is reported as “inactive”.
In the case of NGMGKRGQRSEESISQRSTG, the amyloid nucleation score is reported as “inactive”.
For NGSSFCAKCVNVW, the amyloid nucleation score was -0.418 ± 0.98.
For NGVILYETSAWVTNVYSRFK, the amyloid nucleation score was 1.2 ± 0.18.
Work on NHGATLFECSYCNCSLAFR yielded an amyloid nucleation score of 2.83 ± 0.081.
Substance NHMLCCTCDFHYCVRGWKSF has an amyloid nucleation score of 0.64 ± 0.33.
For NIALFEILSSGIIVSNSNER, the amyloid nucleation score was “inactive”.
With NIGNHYCRYNGWDMLNRGEL the amyloid nucleation score was “inactive”.
With NIGYSLWRHYTNSRG the amyloid nucleation score was “inactive”.
Work on NIISR yielded an amyloid nucleation score of -0.184 ± 0.81.
With NIPVSYYVVNGLIAEMLFIS the amyloid nucleation score was 0.409 ± 0.27.
NIVLFGKRVNFFYLTNDVVK gave an amyloid nucleation score of 1.97 ± 0.067.
In the case of NKAIILHVM, the amyloid nucleation score is reported as “inactive”.
In the case of NKGLNL, the amyloid nucleation score is reported as “inactive”.
For NKGMPGPHGANSRYTGVDVG, the amyloid nucleation score was “inactive”.
In the case of NKNHYFRVF, the amyloid nucleation score is reported as “inactive”.
In the case of NKNQIDQASSWFPR, the amyloid nucleation score is reported as “inactive”.
For NLADAVEENGGYFHFTFPKF, the amyloid nucleation score was “inactive”.
For NLAFP, the amyloid nucleation score was “inactive”.
For NLCIWPVTDAHLSLMHYLTP, the amyloid nucleation score was “inactive”.
For NLFDGTN, the amyloid nucleation score was “inactive”.
In the case of NLHAEWMDGSTGRKIAWNNG, the amyloid nucleation score is reported as “inactive”.
With NLKRTQLFLHLFRMGCFHT the amyloid nucleation score was “inactive”.
In the case of NLLDYTVIVNSLSFVDSKSS, the amyloid nucleation score is reported as “inactive”.
